Experimental findings from patent US20140335510, “NANOPARTICLE SENSOR FOR NUCLEIC ACID-PROTEIN INTERACTION” (Agency for Science, Technology and Research, published 2014) are described below.

The data set has as its target T1, FoxA1 (full-length) (UniProt P55317 P55317:1-472).
T1 sequence: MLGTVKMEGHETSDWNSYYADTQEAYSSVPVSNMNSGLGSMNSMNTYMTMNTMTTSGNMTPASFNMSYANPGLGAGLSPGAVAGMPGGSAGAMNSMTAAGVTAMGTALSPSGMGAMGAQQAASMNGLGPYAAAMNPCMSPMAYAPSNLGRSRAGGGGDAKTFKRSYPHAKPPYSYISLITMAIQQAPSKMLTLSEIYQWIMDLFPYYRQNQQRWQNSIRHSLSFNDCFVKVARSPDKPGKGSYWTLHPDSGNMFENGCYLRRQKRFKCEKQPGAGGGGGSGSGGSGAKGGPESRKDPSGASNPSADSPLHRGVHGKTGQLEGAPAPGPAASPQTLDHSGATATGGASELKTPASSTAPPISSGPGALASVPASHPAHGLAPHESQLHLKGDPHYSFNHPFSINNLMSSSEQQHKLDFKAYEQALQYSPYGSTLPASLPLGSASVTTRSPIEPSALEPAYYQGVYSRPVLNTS
Description: negative control; no fluorescence change of ACP-430 or CCP-410 on adding FoxA1. As to conditions: tags: N-terminal His-MBP fusion, pHISMBP vector, E. coli BL21(DE3); label: 5'-thiol-AuNP on sense strand (sensor).

B1: mtR3 (dsDNA)
DNA 1: AAAGTATTCAGAATCCATG
DNA 2: CATGGATTCTGAATACTTT
With B1, the binding result is listed as “no binding”.
